# From the RNAGym collection of RNA variant scans (doi:10.1101/gr.219683.116)
# B1: mRNA-splicing (parent)
# chain: AGUUGCUGCUGGGAGCUCCAGCACAGUGAAAUGGACAGAAGGGCAGAGCAA
# Variants of: B1
# Assay: exon inclusion enrichment index; higher = more inclusion; WT1 exon 5 minigene, HEK293
row,Variant,exon inclusion enrichment index
1,AGUUCACACAGGGAGCUCCAGCGAAGUGAAAUGGACAGAAGGGCAGAGCAA [G5C C6A U7C G8A U10A A23G C24A],0.48
2,AGUUCACACAGGGAGCUCCAGCGGAGUGAAAUGGACAGAAGGGCAGAGCAA [G5C C6A U7C G8A U10A A23G C24G],0.559
3,AGUUCACACAGGGAGCUCCAGCGUAGUGAAAUGGACAGAAGGGCAGAGCAA [G5C C6A U7C G8A U10A A23G C24U],0.0154
4,AGUUCACACAGGGAGCUCCAGCACGUUGAAAUGGACAGAAGGGCAGAGCAA [G5C C6A U7C G8A U10A A25G G26U],0.306
5,AGUUCACACAGGGAGCUCCAGCACGCUGAAAUGGACAGAAGGGCAGAGCAA [G5C C6A U7C G8A U10A A25G G26C],0.647
6,AGUUCACACAGGGAGCUCCAGCACGAUGAAAUGGACAGAAGGGCAGAGCAA [G5C C6A U7C G8A U10A A25G G26A],0.663
7,AGUUCACACAGGGAGCUCCAGCACAGUGAAAUGGGAAGAAGGGCAGAGCAA [G5C C6A U7C G8A U10A A35G C36A],0.0625
8,AGUUCACACAGGGAGCUCCAGCACAGUGAAAUGGGGAGAAGGGCAGAGCAA [G5C C6A U7C G8A U10A A35G C36G],0.00494
9,AGUUCACACAGGGAGCUCCAGCACAGUGAAAUGGGUAGAAGGGCAGAGCAA [G5C C6A U7C G8A U10A A35G C36U],0.00147
10,AGUUCACACAGGGAGCUCCAGCACAGUGGAAUGGACAGAAGGGCAGAGCAA [G5C C6A U7C G8A U10A A29G],0.202
11,AGUUCACACAGGGAGCUCCAGCACAGUGCAAUGGACAGAAGGGCAGAGCAA [G5C C6A U7C G8A U10A A29C],0.0911
12,AGUUCACACAGGGAGCUCCAGCACAGUGUAAUGGACAGAAGGGCAGAGCAA [G5C C6A U7C G8A U10A A29U],0.035
13,AGUUCACACAGGGAGCUCCAGCCCAGUGAAAUGGACAGAAGGGCAGAGCAA [G5C C6A U7C G8A U10A A23C],0.0903
14,AGUUCACACAGGGAGCUCCAGCUCAGUGAAAUGGACAGAAGGGCAGAGCAA [G5C C6A U7C G8A U10A A23U],0.0425
15,AGUUCACACAGGGAGCUCCAGCGCAGUGAAAUGGACAGAAGGGCAGAGCAA [G5C C6A U7C G8A U10A A23G],0.287
16,AGUUCACACAGGGAGCUCCAGCCGAGUGAAAUGGACAGAAGGGCAGAGCAA [G5C C6A U7C G8A U10A A23C C24G],0.664
17,AGUUCACACAGGGAGCUCCAGCCUAGUGAAAUGGACAGAAGGGCAGAGCAA [G5C C6A U7C G8A U10A A23C C24U],0.0196
18,AGUUCACACAGGGAGCUCCAGCCAAGUGAAAUGGACAGAAGGGCAGAGCAA [G5C C6A U7C G8A U10A A23C C24A],0.209
19,AGUUCACACAGGGAGCUCCAGCACAGUGAAAUGGGCAGAAGGGCAGAGCAA [G5C C6A U7C G8A U10A A35G],0.0247
20,AGUUCACACAGGGAGCUCCAGCACAGUGAAAUGGCCAGAAGGGCAGAGCAA [G5C C6A U7C G8A U10A A35C],0.0232
21,AGUUCACACAGGGAGCUCCAGCACAGUGAAAUGGUCAGAAGGGCAGAGCAA [G5C C6A U7C G8A U10A A35U],0.00802
22,AGUUCACACAGGGAGCUCCUGCACAGUGAAAUGGACAGAAGGGCAGAGCAA [G5C C6A U7C G8A U10A A20U],0.199
23,AGUUCACACAGGGAGCUCCGGCACAGUGAAAUGGACAGAAGGGCAGAGCAA [G5C C6A U7C G8A U10A A20G],0.306
24,AGUUCACACAGGGAGCUCCCGCACAGUGAAAUGGACAGAAGGGCAGAGCAA [G5C C6A U7C G8A U10A A20C],0.142
25,AGUUCACACAGGGCCCUCCAGCACAGUGAAAUGGACAGAAGGGCAGAGCAA [G5C C6A U7C G8A U10A A14C G15C],0.00871
26,AGUUCACACAGGGCUCUCCAGCACAGUGAAAUGGACAGAAGGGCAGAGCAA [G5C C6A U7C G8A U10A A14C G15U],0.00827

row,Variant,exon inclusion enrichment index
1,AGUUCACACAGGGAGCUCCGUCACAGUGAAAUGGACAGAAGGGCAGAGCAA [G5C C6A U7C G8A U10A A20G G21U],0.177
2,AGUUCACACAGGGAGCUCCGACACAGUGAAAUGGACAGAAGGGCAGAGCAA [G5C C6A U7C G8A U10A A20G G21A],0.186
3,AGUUCACACAGGGAGCUCCGCCACAGUGAAAUGGACAGAAGGGCAGAGCAA [G5C C6A U7C G8A U10A A20G G21C],0.164
4,AGUUCACACAGGGUGCUCCAGCACAGUGAAAUGGACAGAAGGGCAGAGCAA [G5C C6A U7C G8A U10A A14U],0.0358
5,AGUUCACACAGGGGGCUCCAGCACAGUGAAAUGGACAGAAGGGCAGAGCAA [G5C C6A U7C G8A U10A A14G],0.0477
6,AGUUCACACAGGGUUCUCCAGCACAGUGAAAUGGACAGAAGGGCAGAGCAA [G5C C6A U7C G8A U10A A14U G15U],0.0233
7,AGUUCACACAGGGUACUCCAGCACAGUGAAAUGGACAGAAGGGCAGAGCAA [G5C C6A U7C G8A U10A A14U G15A],0.00771
8,AGUUCACACAGGGUCCUCCAGCACAGUGAAAUGGACAGAAGGGCAGAGCAA [G5C C6A U7C G8A U10A A14U G15C],0.0301
9,AGUUCACACAGGGAGCUCCAGCACAGUGAAAUGGACGUAAGGGCAGAGCAA [G5C C6A U7C G8A U10A A37G G38U],0.0217
10,AGUUCACACAGGGAGCUCCAGCACAGUGAAAUGGACGCAAGGGCAGAGCAA [G5C C6A U7C G8A U10A A37G G38C],0.228
11,AGUUCACACAGGGAGCUCCAGCACAGUGAAAUGGACGAAAGGGCAGAGCAA [G5C C6A U7C G8A U10A A37G G38A],0.104
12,AGUUCACACAGGGAGCUCCUUCACAGUGAAAUGGACAGAAGGGCAGAGCAA [G5C C6A U7C G8A U10A A20U G21U],0.037
13,AGUUCACACAGGGAGCUCCUACACAGUGAAAUGGACAGAAGGGCAGAGCAA [G5C C6A U7C G8A U10A A20U G21A],0.0323
14,AGUUCACACAGGGAGCUCCUCCACAGUGAAAUGGACAGAAGGGCAGAGCAA [G5C C6A U7C G8A U10A A20U G21C],0.0942
15,AGUUCACACAGGGAGCUCCAGCACAGUGAAUUGGACAGAAGGGCAGAGCAA [G5C C6A U7C G8A U10A A31U],0.094
16,AGUUCACACAGGGAGCUCCAGCACAGUGAAGUGGACAGAAGGGCAGAGCAA [G5C C6A U7C G8A U10A A31G],0.141
17,AGUUCACACAGGGAGCUCCAGCACAGUGAACUGGACAGAAGGGCAGAGCAA [G5C C6A U7C G8A U10A A31C],0.155
18,AGUUCACACAGGGAGCUCCAGCACAGUGACAUGGACAGAAGGGCAGAGCAA [G5C C6A U7C G8A U10A A30C],0.0836
19,AGUUCACACAGGGAGCUCCAGCACAGUGAGAUGGACAGAAGGGCAGAGCAA [G5C C6A U7C G8A U10A A30G],0.0971
20,AGUUCACACAGGGAGCUCCAGCACAGUGAUAUGGACAGAAGGGCAGAGCAA [G5C C6A U7C G8A U10A A30U],0.0402
21,AGUUCACACAGGGAGCUCCAGCACAGUGAAGGGGACAGAAGGGCAGAGCAA [G5C C6A U7C G8A U10A A31G U32G],0.0429
22,AGUUCACACAGGGAGCUCCAGCACAGUGAAGAGGACAGAAGGGCAGAGCAA [G5C C6A U7C G8A U10A A31G U32A],0.854
23,AGUUCACACAGGGAGCUCCAGCACAGUGAAGCGGACAGAAGGGCAGAGCAA [G5C C6A U7C G8A U10A A31G U32C],0.646
24,AGUUCACACAGGGAGCUCCCUCACAGUGAAAUGGACAGAAGGGCAGAGCAA [G5C C6A U7C G8A U10A A20C G21U],0.0192
25,AGUUCACACAGGGAGCUCCCCCACAGUGAAAUGGACAGAAGGGCAGAGCAA [G5C C6A U7C G8A U10A A20C G21C],0.00894
